Measured values as given in IntAct's records for PubMed 20018686.

B1: Serine/threonine-protein kinase BIK1 (Arabidopsis thaliana (Mouse-ear cress)), O48814 (parent)
chain: MGSCFSSRVKADIFHNGKSSDLYGLSLSSRKSSSTVAAAQKTEGEILSSTPVKSFTFNELKLATRNFRPDSVIGEGGFGCVFKGWLDESTLTPTKPGTGLVIAVKKLNQEGFQGHREWLTEINYLGQLSHPNLVKLIGYCLEDEHRLLVYEFMQKGSLENHLFRRGAYFKPLPWFLRVNVALDAAKGLAFLHSDPVKVIYRDIKASNILLDADYNAKLSDFGLARDGPMGDLSYVSTRVMGTYGYAAPEYMSSGHLNARSDVYSFGVLLLEILSGKRALDHNRPAKEENLVDWARPYLTSKRKVLLIVDNRLDTQYLPEEAVRMASVAVQCLSFEPKSRPTMDQVVRALQQLQDNLGKPSQTNPVKDTKKLGFKTGTTKSSEKRFTQKPFGRHLV
B2: Serine/threonine-protein kinase BIK1 (Arabidopsis thaliana (Mouse-ear cress)), O48814 (parent)
chain: B1 chain
partner: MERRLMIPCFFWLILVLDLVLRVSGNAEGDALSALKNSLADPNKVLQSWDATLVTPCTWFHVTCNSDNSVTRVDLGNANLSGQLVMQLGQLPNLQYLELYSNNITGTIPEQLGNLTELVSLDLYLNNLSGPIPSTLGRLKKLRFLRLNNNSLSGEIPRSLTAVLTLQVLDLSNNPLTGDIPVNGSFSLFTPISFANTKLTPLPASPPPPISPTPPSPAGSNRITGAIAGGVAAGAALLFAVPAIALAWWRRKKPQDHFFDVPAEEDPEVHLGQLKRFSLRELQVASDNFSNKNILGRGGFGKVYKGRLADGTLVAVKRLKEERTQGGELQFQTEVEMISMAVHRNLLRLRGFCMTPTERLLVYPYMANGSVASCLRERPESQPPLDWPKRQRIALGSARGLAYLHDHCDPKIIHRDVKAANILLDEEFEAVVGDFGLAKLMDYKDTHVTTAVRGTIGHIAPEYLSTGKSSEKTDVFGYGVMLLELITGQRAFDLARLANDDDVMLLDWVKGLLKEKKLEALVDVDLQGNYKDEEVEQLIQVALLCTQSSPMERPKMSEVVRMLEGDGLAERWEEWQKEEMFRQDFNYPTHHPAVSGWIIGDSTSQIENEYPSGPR

Variants of: B1
Details: with fls2_arath FLS2, Q9FL28
fls2_arath FLS2, Q9FL28, sequence (Q9FL28 whole entry): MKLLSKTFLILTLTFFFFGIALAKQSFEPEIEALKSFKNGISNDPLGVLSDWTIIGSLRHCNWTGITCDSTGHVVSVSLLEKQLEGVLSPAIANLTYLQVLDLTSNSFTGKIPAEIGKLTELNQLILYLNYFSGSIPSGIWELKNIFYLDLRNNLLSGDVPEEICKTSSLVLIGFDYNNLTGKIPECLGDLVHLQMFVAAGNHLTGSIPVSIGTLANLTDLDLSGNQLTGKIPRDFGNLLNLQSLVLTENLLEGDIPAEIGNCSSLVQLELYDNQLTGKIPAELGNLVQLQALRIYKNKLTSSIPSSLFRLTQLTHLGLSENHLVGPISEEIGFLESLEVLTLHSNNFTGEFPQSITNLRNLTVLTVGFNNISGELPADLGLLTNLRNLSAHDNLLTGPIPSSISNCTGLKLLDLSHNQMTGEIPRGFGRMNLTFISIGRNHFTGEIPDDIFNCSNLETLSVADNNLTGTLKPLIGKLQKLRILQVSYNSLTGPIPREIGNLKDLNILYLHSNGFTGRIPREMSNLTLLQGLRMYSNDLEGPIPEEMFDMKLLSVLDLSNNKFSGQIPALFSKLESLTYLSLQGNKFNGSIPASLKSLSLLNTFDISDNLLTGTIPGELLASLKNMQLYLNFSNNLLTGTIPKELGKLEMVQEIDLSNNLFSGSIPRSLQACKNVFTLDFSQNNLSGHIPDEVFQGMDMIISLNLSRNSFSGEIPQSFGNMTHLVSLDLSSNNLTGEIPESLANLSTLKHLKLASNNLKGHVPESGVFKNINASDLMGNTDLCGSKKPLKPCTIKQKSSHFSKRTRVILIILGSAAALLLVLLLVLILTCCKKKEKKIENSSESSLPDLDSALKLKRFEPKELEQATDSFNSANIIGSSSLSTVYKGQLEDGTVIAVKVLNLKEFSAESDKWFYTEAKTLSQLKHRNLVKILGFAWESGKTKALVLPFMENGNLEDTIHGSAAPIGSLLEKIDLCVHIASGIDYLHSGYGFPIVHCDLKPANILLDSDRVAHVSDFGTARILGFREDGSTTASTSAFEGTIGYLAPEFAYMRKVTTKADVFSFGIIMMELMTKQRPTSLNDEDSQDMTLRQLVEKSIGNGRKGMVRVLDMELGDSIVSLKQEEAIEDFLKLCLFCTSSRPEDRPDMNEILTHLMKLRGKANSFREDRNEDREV

Row | Variant | effect of a mutation on the interaction
1 | T237A | disrupting interaction

Variants of: B2
Details: with bak1_arath BAK1, Q94F62

Row | Variant | effect of a mutation on the interaction
2 | T237A | disrupting interaction
